The record followed here is PMC10164562.

The target of experiment [1] is BrxL(E280Q) (Acinetobacter sp. 394). Description: cryo-EM structure; BrxL(E280Q), high molecular weight SEC fractions with co-purified host DNA, no added ATP; C1 refinement.
In experiment [2] the target is wild-type BrxL (Acinetobacter sp. 394). The experiment is described as follows: cryo-EM structure; wild-type BrxL, high molecular weight SEC fractions, ~0.8 mg/ml, no added ATP, no bound DNA; C7 symmetry.

By stoichiometry N is commonly meant the number of molecules, sites or subunits per partner or assembly.

The substance BrxL(E280Q) (natural protein) had a stoichiometry N in experiment [1] of 12.

Take wild-type BrxL (natural protein): the stoichiometry N in experiment [2] turned out to be 14.
